Experimental data published in patent US20220242962A1 (APTEVO RESEARCH AND DEVELOPMENT, published 2022).
Changes are numbered by the printed parent chain. Names and notes keep the numbering of the source.

T1: Full-length Human OX40 (human, UniProt P43489 29-277)
T1 sequence: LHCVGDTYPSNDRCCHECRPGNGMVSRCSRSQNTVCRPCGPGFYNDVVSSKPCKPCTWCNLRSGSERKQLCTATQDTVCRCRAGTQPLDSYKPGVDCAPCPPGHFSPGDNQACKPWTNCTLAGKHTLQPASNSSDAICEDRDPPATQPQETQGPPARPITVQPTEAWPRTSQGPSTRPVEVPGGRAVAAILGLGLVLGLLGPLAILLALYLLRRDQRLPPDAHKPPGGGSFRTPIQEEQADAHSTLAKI

T2: Human OX40 ECD-AFH (human)
T2 construct: ECD'; entry includes the C-terminal tags; also called OXF003; Human OX40 ECD-avi-flag-his
T2 chain: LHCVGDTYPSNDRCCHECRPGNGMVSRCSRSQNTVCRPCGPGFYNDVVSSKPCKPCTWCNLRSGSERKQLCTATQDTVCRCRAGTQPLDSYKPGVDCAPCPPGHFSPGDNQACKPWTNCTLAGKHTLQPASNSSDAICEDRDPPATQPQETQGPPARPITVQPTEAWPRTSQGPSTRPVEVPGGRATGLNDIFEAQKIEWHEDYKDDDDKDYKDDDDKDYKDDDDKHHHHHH

T3: Full-length Cyno OX40 (cynomolgus monkey, UniProt P43489 29-277 (human entry))
T3 construct: on CHO-K1SV cells; also called OXF004; cynomolgus OX40
T3 chain: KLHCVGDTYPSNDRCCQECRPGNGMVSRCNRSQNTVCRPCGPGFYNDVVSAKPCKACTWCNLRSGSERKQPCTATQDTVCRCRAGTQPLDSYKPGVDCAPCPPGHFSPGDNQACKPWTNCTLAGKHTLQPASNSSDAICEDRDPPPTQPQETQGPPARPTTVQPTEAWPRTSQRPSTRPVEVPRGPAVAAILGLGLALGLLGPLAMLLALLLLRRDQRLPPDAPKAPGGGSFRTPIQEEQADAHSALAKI

B1: FXX01066 (bispecific antibody)
chain: EVQLVQSGAEVKKPGASVKVSCKASGYTFTSYWMNWVRQAPGQGLEWMGNIYPSGGSTNYAQKFQGRVTMTVDTSTSTVYMELSSLRSEDTAVYYCASFSDGYYAYAMDYWGQGTLVTVSSGGGGSGGGGSGGGGSGGGGSEIVMTQSPATLSLSPGERATLSCRASQSVSSYLNWYQQKPGQAPRLLIYYASRRHTGIPARFSGSGSGTDFTLTISSLQPEDFAVYYCQQGYNLPYTFGQGTKVEIKEPKSSDKTHTCPPCPAPPAAAPSVFLFPPKPKDTLMISRTPEVTCVVVDVSHEDPEVKFNWYVDGVEVHNAKTKPREEQYNSTYRVVSVLTVLHQDWLNGKEYKCAVSNKALPAPIEKTISKAKGQPREPQVYTLPPSRDELTKNQVSLTCLVKGFYPSDIAVEWESNGQPENNYKTTPPVLDSDGSFFLYSKLTVDKSRWQQGNVFSCSVMHEALHNHYTQKSLSLSPGGGGSPSSYVLTQPPSVSVAPGQTARITCGGNNIGSKSVNWFQQKPGQAPVLVVYDDSGRPSGIPERFSGSTSGNTATLTISRVEAGDEADYYCQVWDSSSDHVVFGGGTKLTVLGGGGSGGGGSGGGGSGGGGSQVQLVESGGGVVQPGRSLRLSCAASGFTLSYYGMHWVRQAPGKGLEWVAAISHDGSDKYYADSVKGRFTISRDNSKNTLYLQMNSLRAEDTAVYYCSNDQFDPWGQGTLVTVSSR
notes: ADAPTIR scFv-Fc-scFv, anti-4-1BB (VH-VL) N-terminal, anti-OX40 C-terminal, PAA (del) Fc; also called FX01066
B2: FXX01101 (bispecific antibody)
chain: B1 chain with T690R
notes: ADAPTIR anti-4-1BB (HL) x anti-OX40 with T86R; PAA (del) Fc; also called FX01101
B3: FXX01115 (bispecific antibody)
chain: B1 chain with I541V, E543N, T690R
notes: ADAPTIR anti-4-1BB x anti-OX40, pI variant; PAA (del) Fc
B4: FXX01102 (bispecific antibody)
chain: B1 chain with Q500K, T690R
notes: ADAPTIR anti-4-1BB (HL) x anti-OX40 with Q17K and T86R; PAA (del) Fc; also called FX01102
B5: FXX01119 (bispecific antibody)
chain: B1 chain with Q500K, I541V, E543N, T690R
notes: as for B3

Legend:
[1] = target: T1, Full-length Human OX40; experiment: cell-based or functional assay
[2] = target: Full-length Human 4-1BB (human, UniProt Q07011 24-255); experiment: cell-based or functional assay
Chain of Full-length Human 4-1BB (Q07011 24-255): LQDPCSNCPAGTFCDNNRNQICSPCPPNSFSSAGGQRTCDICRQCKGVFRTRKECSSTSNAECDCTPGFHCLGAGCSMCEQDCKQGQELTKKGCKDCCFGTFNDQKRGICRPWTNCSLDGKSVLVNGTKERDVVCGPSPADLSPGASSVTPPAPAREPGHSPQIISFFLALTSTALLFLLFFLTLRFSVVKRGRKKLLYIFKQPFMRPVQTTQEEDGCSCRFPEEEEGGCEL

[3] = target: T2, Human OX40 ECD-AFH; experiment: SPR, construct captured, monomeric ECD as analyte
Protocol: (§1) Mouse anti-human IgG (GE, BR-1008-39) at 25 μg/ml in 10 mM sodium acetate pH 5.0 was immobilized at a density of ˜10,000 response units (RU) onto each flow cell of a CM5 research-grade sensor chip (GE) by standard amine coupling chemistry. Each binding protein at approximately 100 nM in HBS-EP+ with 0.2% BSA buffer was captured in a flow cell with the immobilized anti-human IgG at a flow rate of 10 μL/min for 20 seconds, leaving one flow cell surface unmodified as the reference. Using a single-cycle kinetics mode, five different concentrations of ECD were sequentially injected through each flow cell at 30 μL/min for 300 seconds followed by a 600 second dissociation period. Regeneration was achieved by injection of 3 M MgCl₂ at a flow rate of 30 μL/min for 30 seconds followed by HBS-EP+ with 0.2% BSA buffer stabilization for 1 min.
(§2) Sensorgrams obtained from kinetic SPR measurements were analyzed by the double subtraction method. The signal from the reference flow cell was subtracted from the analyte binding response obtained from flow cells with immobilized or captured ligands. Buffer reference responses were then averaged from multiple injections. The averaged buffer reference responses were then subtracted from analyte binding responses, and the final double-referenced data were analyzed with Biacore T200 Evaluation software (2.0, GE), globally fitting data to derive kinetic parameters. All sensorgrams were fitted using a simple one-to-one binding model.
(§3) Protein was produced by transient expression, purified by ProA chromatography and prep SEC.

[4] = target: T4, Human 4-1BB ECD-AFH (human); experiment: SPR, construct captured, monomeric ECD as analyte
T4 construct: entry includes the tags; also called FOB003; HUMAN CD137 ECD-AVI-FLAG-HIS
T4 sequence (chain, as listed by the source limits assumed): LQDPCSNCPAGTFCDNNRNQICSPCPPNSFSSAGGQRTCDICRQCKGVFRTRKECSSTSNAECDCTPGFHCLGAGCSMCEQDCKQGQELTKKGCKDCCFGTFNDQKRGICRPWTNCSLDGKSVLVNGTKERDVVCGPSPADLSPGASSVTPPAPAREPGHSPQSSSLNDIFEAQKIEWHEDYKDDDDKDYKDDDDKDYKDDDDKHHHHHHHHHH
Protocol: as §1, §2, §3

[5] = target: T3, Full-length Cyno OX40; experiment: flow cytometry on CHOK1SV cells transfected with cynomolgus OX40, goat anti-human Fc secondary antibody, MFI (Mean)
Protocol: FIGS. 12A-12D show the binding of anti-4-1BB x anti-OX40 constructs, with additional humanization in 4-1BB and altered orientations of binding domains, human (12A) or cynomolgus (12C) 4-1BB-expressing Jurkat cells or human (12B) or cynomolgus (12D) OX40-expressing CHOK1SV cells. Serial dilutions of ADAPTIR™ constructs were incubated with transfected cells and subsequently labelled with a fluorescently-conjugated goat-a-human Fc secondary antibody. […] (See Example 19.)
Binding studies were performed using the flow cytometry-based staining procedures described above.

[6] = target: T5, Fc gamma receptor RIIIA V176 (human, UniProt P08637 17-208); experiment: SPR, construct immobilized, receptor injected at 2 uM
T5 construct: soluble SPR analyte
T5 sequence (P08637 17-208 F176V): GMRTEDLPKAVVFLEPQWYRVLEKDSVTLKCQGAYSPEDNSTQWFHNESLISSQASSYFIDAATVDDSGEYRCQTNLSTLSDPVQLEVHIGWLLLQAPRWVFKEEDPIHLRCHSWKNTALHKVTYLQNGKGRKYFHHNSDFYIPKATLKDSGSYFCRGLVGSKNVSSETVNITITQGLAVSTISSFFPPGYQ

Row | Binder | OX40 Reporter Assay EC50 [1] [pM] | OX40 Reporter Assay Max induction [1] | 4-1BB Reporter Assay EC50 [2] [pM] | 4-1BB Reporter Assay Max induction [2] | Kd [3] [pM] | koff [3] [s⁻¹] | kon [3] [M⁻¹ s⁻¹] | Kd [4] [pM] | koff [4] [s⁻¹] | kon [4] [M⁻¹ s⁻¹] | EC50 (read off the curve) [5] [pM] | Max RU value during association [6] [RU]
1 | B1 | 12 | 1.99e+06 | 18 | 5.5e+06 | 500 | 0.00031 | 680000 | 15000 | 0.0045 | 290000 | ~1000 | –
2 | B2 | 11 | 2.03e+06 | 19 | 6.96e+06 | 600 | 0.00041 | 630000 | 16000 | 0.0046 | 290000 | ~800 | –
3 | B3 | – | – | – | – | – | – | – | – | – | – | – | 0
4 | B4 | 10 | 2.05e+06 | 14 | 6.94e+06 | 400 | 0.0003 | 710000 | 15000 | 0.0043 | 290000 | ~800 | –
5 | B5 | – | – | – | – | – | – | – | – | – | – | – | 0
